Experimental data from article doi:10.1101/2024.02.23.581399 (bioRxiv, 2024).
Non-standard residues stand in square brackets, D forms with d. No end group written: not given here. pT = C[C@@H](OP(=O)(O)O)[C@H](N)C(=O)O; pS = N[C@@H](COP(=O)(O)O)C(=O)O

Target: T1, PLK1PBD (human, UniProt P53350 370-603)
T1 construct: PLK1, human, residues 370-603 (Polo-box domain); Labelled PLK1PBD without a tag in the amylose pull-downs and the crystal structures; also called PLK1_(370-603); Polo-Box Domain; source: E. coli BL21 Gold (DE3), purified (HisTrap, SEC)
T1 sequence (P53350 370-603): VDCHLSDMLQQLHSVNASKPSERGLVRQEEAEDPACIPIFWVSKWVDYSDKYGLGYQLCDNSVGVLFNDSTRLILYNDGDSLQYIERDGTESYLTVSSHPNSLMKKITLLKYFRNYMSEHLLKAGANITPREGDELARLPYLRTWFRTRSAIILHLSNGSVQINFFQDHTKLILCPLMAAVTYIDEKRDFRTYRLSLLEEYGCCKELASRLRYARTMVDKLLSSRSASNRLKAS
Experiment: crystal structure; PLK1PBD mixed with two times molar excess of phospho-peptide, sitting drop, 18°C
Details: both partners purified

Row | Binder | binding result
1 | ASMWS[pS]M (also called S54ph peptide; Mis18α_(S54ph); source: synthetic peptide (Peptide Synthetics)) [Mis18α_(49-55) phospho-peptide (ASMWSSphM)] | binds
2 | KNIFQS[pT]MLTE (Mis18BP1, human, residues 72-82; also called T78ph peptide; Mis18BP1_(T78ph); source: synthetic peptide (Peptide Synthetics)) [Mis18BP1_(72-82) phospho-peptide (KNIFQSTphMLTE)] | binds
